For series [1], the target named is T1, TkAcnX (Thermococcus kodakarensis, UniProt Q5JGJ6+Q5JGJ7).
T1 construct: gene TK1249; both subunits co-expressed in E. coli (pETDuet-1); His6 tag on small subunit cut off with 3C protease; heterodimer ~24 + ~42 kDa
In words: X-ray co-crystal structure, […] Å. Format: binding. The conditions noted are these: 40 mM MVA5P in co-crystallization; inactive form with [3Fe-4S] cluster; active site between subunits.

Substrate in series [2]: O=C(O)[C@H]1NCC[C@H]1O
In words: coupled spectrophotometric assay with NADH-dependent Pyr2C reductase. The class given is biochemical, Agrobacterium fabrum. To be noted: free enzyme; coupling with NADH.

T1 sequence (Q5JGJ7 whole entry): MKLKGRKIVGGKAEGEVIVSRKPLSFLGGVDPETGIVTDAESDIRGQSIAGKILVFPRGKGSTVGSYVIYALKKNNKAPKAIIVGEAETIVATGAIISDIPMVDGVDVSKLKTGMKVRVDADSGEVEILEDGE
T1 sequence (Q5JGJ6 whole entry): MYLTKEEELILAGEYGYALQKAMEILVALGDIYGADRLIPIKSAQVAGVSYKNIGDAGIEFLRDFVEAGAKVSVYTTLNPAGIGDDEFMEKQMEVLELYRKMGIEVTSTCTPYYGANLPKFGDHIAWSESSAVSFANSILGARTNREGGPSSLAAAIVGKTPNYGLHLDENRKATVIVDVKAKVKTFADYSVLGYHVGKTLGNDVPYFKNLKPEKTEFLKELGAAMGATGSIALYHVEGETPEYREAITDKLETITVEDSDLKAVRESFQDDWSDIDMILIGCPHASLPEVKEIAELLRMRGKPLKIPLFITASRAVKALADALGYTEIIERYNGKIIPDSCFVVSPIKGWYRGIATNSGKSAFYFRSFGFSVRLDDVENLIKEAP

For `C[C@@](O)(CCOP(=O)(O)O)CC(=O)O` [MVA5P], the “X-ray co-crystal structure, 1.9 Å” value in series [1] is “co-crystallized the wild-type enzyme of TkAcnX (inactive form) with MVA5P”.

B1: AtAcnX (Agrobacterium fabrum str. C58) (protein)
chain: MSSAVSTTAAPEARSILAGAAEGKVIATTEALSFWGGVDPATGKVIDVHHPLHGICLTGGVLFMPTSRGSCTGSGVLLDLILTGRAPSALVFCEAEDVLTLGALVAAEMFDKALPVIRLDAETFSRFSRAAHVSIDQNTIKADGVSLAIAPPATAHLDLNDDDRAMLVGRDGIAVRQAMRIIVAMAAQQGASALVDVTQGHIDGCIYASPANLTFAEKMADMGGKVRAPSTMNAISVDKANWRAQGVPEDFGDPAARLADAYVRMGCKPTFTCSPYLLDSAPSAGESIAWAESNAVIFANTVLGARTAKHPDFLDLCIAMTGRAPLSGVYIEENRRPQRIVDVALPAGIDDAFWPLVGYLAGKAAPDCIPLLRGLGAAKPSRDDLKALCAAFGTTSASPMLHIEGATPEAGLAPLETAETVTISLQDMAAAWSLLNDGPEEVQLVAIGSPHASLEECRALAAVFAGRKRRADVAVIVTAGQQVIDAAGKDGTLQSLKDSGVQVLPDLCWCSISEPVFPTKTRALMTNSGKYAHYGPGLSGRAVRFGSLADCVESALTGRAVSRLPVWLS
notes: E. coli BL21(DE3); monomer, ~59 kDa; [2Fe-2S] cluster
Turning to B1, in series [2], the Km is 1160 ± 110 µM and the kcat was 33.33 ± 2.77 s⁻¹.

The Km is the substrate concentration at which the rate is half of its maximum. A word on the kcat: it is the number of substrate molecules converted per active site and unit of time at saturation.

Values taken from paper PMC8184944, “Crystal structures of aconitase X enzymes from bacteria and archaea provide insights into the molecular evolution of the aconitase superfamily” (Communications Biology, 2021).
